Earlier results, collected in article PMC11267001.

Biological target: DOCK5ΔC/ELMO1 DOCK5 1-1642 (Homo sapiens) (UniProt Q9H7D0)

- Kd: 10 µM
Substance: RhoG (from UniProt P84095)
